Consider 7 molecules from patent US20240294604A1 (Stanford University, published 2024).

In assay [1] the target is T1, A Proliferation Inducing Ligand (APRIL) (human, UniProt O75888 105-250).
T1 sequence: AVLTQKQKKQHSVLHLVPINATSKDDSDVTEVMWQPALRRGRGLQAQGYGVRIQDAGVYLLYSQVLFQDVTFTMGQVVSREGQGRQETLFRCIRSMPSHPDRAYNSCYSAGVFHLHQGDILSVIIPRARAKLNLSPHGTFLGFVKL
Put plainly: cell binding titration by flow cytometry; soluble APRIL varied to 10 nM on cells displaying the BCMA clone; BP is not defined in the filing. In general terms: In flow cytometry, cells or beads pass a laser one at a time.

Assay [2] deals with T1, A Proliferation Inducing Ligand (APRIL). Put plainly: cell binding titration by flow cytometry; soluble APRIL varied to 10 nM on cells displaying the BCMA clone.
The target in assay [3] is BAFF. Put plainly: cell binding titration by flow cytometry; soluble BAFF varied to 10 nM on cells displaying the BCMA clone.
BAFF, sequence (soluble ligand, as listed by the source): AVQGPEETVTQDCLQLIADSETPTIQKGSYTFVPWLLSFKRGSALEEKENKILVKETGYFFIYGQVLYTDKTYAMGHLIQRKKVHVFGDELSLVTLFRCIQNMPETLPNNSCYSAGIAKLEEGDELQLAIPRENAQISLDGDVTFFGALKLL
Assay [4] addresses BAFF. Put plainly: cell binding titration by flow cytometry; soluble BAFF varied to 10 nM on cells displaying the BCMA clone; B.P is not defined in the filing.
The target of assay [5] is BAFF. Put plainly: cell binding titration by flow cytometry; soluble BAFF varied on cells displaying the BCMA clone.

Where a chain is given by its changes, count along the chain named.

B1: BCMA#75 (receptor)
variant BCMA extracellular domain: MLPMAGQCPQNEYFDSLLYACIPCQLRCSSSTPPLACQHYCNASVTRSVEGTNA
notes: also called Clone #75; clones #49, 75-94
Usually Kd stands for the constant that tells how readily two partners part at equilibrium. A high value points to weaker binding. B1 returned a BP in assay [1] of 441. In addition, in assay [2], the Bmax was found to be 7060 A.U and the Kd was ~0.016 nM.

B2: BCMA#71 (receptor)
variant BCMA extracellular domain: MLQMAGQCSQNEYFDGLLYACIPCQLRCSSNTPPLACQRYCNASVTNSVKGTDA
notes: also called Clone #71; sBCMA variant clone 71
In the assay with BAFF [3], B2 yielded a Bmax of 1230 A.U and a dissociation constant Kd of 0.009 nM. The BP in assay [1] came to 1030. In assay [2], this molecule yielded a Bmax of 8270 A.U and a Kd of 0.008 nM. In the assay with BAFF [4], this molecule came in with a B.P of 136.

B3: BCMA#73 (receptor)
variant BCMA extracellular domain: B2 variant BCMA extracellular domain with Y19H, D53N
notes: also called Clone #73; clone #22
Turning to B3, the binding result with BAFF [5] was “no binding”. Moreover, the BP in assay [1] worked out at 102. Besides, in assay [2], the Bmax was found to be 5530 A.U and binding was characterised by a dissociation constant (Kd) of 0.054 nM.

B4: BCMA#106 (receptor)
variant BCMA extracellular domain: VSQTAGQCSQNEYFDGLLHACIPCQLRCSSDIPPLACQRYCNASVTNSVKGTNA
notes: also called Clone #106; clones #106-111
With B4, in the assay with BAFF [3], the Bmax amounted to 870 A.U and the Kd was 0.028 nM. The molecule further returned a BP in assay [1] of 527. In assay [2], this molecule came in with a Bmax of 7910 A.U and a Kd of 0.015 nM.

B5: BCMA#74 (receptor)
variant BCMA extracellular domain: B2 variant BCMA extracellular domain with S9P, N11D, N47S
notes: also called Clone #74; sBCMA variant clone 74
As for B5, the Bmax with BAFF [3] turned out to be 1680 A.U; in assay [2], 9200 A.U. In addition, the Kd worked out at 0.009 nM with BAFF [3] and 0.007 nM in assay [2]. The molecule also returned a BP in assay [1] of 1310. Further, in the assay with BAFF [4], the B.P worked out at 186.

B6: BCMA#72 (receptor)
variant BCMA extracellular domain: B2 variant BCMA extracellular domain with D53N
notes: also called Clone #72; sBCMA variant clone 72
In the assay with BAFF [3], B6 registered a Bmax of 974 A.U and a Kd of 0.008 nM. This molecule also registered a BP in assay [1] of 325. Also, in assay [2], the Bmax was 5860 A.U and the Kd was 0.018 nM. Further, the B.P in the assay with BAFF [4] was 121.

B7: BCMA#95 (receptor)
variant BCMA extracellular domain: B4 variant BCMA extracellular domain with N11D, G16S, H19Y, D31N, I32T
notes: also called Clone #95
With B7, in assay [1], the BP is 258. In addition, in assay [2], the Bmax worked out at 7230 A.U and the Kd amounted to 0.028 nM.
